What was measured:
[1] = target: T1, ANT2-HA (human, UniProt P05141 1-298); assay: co-expression of ANT2-HA and FLAG-tagged uORF44 in HEK 293 T cells, immunoprecipitation by one tag, western blot by the other tag
T1 construct: Co-expressed with FLAG-tagged uORF44 in HEK 293 T cells; not shown: HA tag fused to the subtype
T1 sequence (looked up): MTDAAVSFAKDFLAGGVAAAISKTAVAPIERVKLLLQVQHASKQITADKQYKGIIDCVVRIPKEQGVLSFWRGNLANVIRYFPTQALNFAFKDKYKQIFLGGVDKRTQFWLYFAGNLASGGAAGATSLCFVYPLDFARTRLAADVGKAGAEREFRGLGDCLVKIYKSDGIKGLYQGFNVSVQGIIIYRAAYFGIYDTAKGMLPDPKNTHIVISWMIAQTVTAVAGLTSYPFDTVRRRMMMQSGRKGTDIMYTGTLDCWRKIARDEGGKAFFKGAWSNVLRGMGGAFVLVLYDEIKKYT
Protocol: The expression vector was transfected into HEK 293 T cells cultured in a 10 cm culture dish using Opt-MEM (Life Technologies) and FuGENE-HD (Promega). After 48 hours of transfection, the cells were washed with PBS and dissolved using 1 mL of lysis buffer (20 m Tris-HCl pH 7.5, 150 mM NaCl, 0.5% NP 40, 1×Complete EDTA free (Roche) 10 mM Glycerol 2-phosphate, 1 mM NaVO4) and allowed to stand on ice for 20 minutes. Thereafter, the cells were centrifuged at 4° C., 21,130×g for 30 minutes, and the supernatant was used for immunoprecipitation. 50 μL of anti-[…] antibody beads (Wako, 016-22784) or 50 μL of Monoclonal Anti-HA-Agarose (Sigma, A 2095) was used in the immunoprecipitation. The supernatant was mixed with antibody beads lysate, and slowly mixed at 4° C. for 1 hour. After completion of the antigen-antibody reaction, it was washed 3 times with 1 mL of a lysis buffer, and then the protein was eluted with 50 μL 1×SDS sample buffer. The eluted sample was subjected to electrophoresis by SDS-PAGE followed by western blotting or SYPRO Ruby staining. The western blotting was performed as described in paragraph “(5) Western blotting.” The SYPRO Ruby staining was performed using SYPRO Ruby protein gel stain (Life Technologies, S 12000), in accordance with a product manual. […]

[2] = target: T2, DNA-PKcs (human, UniProt P78527 1-4128); assay: anti-FLAG immunoprecipitation from HEK 293 T lysate, SDS-PAGE; band identified by mass spectrometry (Table 1)
T2 construct: Endogenous protein co-precipitated from HEK 293 T lysate and identified by mass spectrometry; also called DNK-PKcs; PRKDC

[3] = target: T3, BIP (human, UniProt P11021 19-654); assay: as above
T3 construct: Endogenous protein co-precipitated from HEK 293 T lysate; also called GRP78

Measured: binding result

T3 sequence (P11021 19-654 limits assumed): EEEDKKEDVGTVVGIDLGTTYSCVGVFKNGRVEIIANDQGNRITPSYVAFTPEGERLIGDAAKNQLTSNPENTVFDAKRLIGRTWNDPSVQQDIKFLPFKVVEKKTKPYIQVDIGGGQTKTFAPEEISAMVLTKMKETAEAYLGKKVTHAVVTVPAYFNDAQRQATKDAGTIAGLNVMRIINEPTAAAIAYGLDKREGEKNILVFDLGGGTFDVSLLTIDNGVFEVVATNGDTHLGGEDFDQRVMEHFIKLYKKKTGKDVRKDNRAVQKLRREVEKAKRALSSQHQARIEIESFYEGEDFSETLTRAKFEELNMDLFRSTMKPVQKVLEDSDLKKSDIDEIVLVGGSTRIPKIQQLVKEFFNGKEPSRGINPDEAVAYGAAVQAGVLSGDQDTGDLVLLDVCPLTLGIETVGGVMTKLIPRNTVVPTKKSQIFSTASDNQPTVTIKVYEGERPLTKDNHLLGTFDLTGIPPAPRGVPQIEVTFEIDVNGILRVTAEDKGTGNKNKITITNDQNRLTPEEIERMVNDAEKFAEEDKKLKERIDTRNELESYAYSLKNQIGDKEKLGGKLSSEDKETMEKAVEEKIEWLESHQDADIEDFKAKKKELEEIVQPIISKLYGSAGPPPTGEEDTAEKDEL
T2 sequence (P78527 whole entry): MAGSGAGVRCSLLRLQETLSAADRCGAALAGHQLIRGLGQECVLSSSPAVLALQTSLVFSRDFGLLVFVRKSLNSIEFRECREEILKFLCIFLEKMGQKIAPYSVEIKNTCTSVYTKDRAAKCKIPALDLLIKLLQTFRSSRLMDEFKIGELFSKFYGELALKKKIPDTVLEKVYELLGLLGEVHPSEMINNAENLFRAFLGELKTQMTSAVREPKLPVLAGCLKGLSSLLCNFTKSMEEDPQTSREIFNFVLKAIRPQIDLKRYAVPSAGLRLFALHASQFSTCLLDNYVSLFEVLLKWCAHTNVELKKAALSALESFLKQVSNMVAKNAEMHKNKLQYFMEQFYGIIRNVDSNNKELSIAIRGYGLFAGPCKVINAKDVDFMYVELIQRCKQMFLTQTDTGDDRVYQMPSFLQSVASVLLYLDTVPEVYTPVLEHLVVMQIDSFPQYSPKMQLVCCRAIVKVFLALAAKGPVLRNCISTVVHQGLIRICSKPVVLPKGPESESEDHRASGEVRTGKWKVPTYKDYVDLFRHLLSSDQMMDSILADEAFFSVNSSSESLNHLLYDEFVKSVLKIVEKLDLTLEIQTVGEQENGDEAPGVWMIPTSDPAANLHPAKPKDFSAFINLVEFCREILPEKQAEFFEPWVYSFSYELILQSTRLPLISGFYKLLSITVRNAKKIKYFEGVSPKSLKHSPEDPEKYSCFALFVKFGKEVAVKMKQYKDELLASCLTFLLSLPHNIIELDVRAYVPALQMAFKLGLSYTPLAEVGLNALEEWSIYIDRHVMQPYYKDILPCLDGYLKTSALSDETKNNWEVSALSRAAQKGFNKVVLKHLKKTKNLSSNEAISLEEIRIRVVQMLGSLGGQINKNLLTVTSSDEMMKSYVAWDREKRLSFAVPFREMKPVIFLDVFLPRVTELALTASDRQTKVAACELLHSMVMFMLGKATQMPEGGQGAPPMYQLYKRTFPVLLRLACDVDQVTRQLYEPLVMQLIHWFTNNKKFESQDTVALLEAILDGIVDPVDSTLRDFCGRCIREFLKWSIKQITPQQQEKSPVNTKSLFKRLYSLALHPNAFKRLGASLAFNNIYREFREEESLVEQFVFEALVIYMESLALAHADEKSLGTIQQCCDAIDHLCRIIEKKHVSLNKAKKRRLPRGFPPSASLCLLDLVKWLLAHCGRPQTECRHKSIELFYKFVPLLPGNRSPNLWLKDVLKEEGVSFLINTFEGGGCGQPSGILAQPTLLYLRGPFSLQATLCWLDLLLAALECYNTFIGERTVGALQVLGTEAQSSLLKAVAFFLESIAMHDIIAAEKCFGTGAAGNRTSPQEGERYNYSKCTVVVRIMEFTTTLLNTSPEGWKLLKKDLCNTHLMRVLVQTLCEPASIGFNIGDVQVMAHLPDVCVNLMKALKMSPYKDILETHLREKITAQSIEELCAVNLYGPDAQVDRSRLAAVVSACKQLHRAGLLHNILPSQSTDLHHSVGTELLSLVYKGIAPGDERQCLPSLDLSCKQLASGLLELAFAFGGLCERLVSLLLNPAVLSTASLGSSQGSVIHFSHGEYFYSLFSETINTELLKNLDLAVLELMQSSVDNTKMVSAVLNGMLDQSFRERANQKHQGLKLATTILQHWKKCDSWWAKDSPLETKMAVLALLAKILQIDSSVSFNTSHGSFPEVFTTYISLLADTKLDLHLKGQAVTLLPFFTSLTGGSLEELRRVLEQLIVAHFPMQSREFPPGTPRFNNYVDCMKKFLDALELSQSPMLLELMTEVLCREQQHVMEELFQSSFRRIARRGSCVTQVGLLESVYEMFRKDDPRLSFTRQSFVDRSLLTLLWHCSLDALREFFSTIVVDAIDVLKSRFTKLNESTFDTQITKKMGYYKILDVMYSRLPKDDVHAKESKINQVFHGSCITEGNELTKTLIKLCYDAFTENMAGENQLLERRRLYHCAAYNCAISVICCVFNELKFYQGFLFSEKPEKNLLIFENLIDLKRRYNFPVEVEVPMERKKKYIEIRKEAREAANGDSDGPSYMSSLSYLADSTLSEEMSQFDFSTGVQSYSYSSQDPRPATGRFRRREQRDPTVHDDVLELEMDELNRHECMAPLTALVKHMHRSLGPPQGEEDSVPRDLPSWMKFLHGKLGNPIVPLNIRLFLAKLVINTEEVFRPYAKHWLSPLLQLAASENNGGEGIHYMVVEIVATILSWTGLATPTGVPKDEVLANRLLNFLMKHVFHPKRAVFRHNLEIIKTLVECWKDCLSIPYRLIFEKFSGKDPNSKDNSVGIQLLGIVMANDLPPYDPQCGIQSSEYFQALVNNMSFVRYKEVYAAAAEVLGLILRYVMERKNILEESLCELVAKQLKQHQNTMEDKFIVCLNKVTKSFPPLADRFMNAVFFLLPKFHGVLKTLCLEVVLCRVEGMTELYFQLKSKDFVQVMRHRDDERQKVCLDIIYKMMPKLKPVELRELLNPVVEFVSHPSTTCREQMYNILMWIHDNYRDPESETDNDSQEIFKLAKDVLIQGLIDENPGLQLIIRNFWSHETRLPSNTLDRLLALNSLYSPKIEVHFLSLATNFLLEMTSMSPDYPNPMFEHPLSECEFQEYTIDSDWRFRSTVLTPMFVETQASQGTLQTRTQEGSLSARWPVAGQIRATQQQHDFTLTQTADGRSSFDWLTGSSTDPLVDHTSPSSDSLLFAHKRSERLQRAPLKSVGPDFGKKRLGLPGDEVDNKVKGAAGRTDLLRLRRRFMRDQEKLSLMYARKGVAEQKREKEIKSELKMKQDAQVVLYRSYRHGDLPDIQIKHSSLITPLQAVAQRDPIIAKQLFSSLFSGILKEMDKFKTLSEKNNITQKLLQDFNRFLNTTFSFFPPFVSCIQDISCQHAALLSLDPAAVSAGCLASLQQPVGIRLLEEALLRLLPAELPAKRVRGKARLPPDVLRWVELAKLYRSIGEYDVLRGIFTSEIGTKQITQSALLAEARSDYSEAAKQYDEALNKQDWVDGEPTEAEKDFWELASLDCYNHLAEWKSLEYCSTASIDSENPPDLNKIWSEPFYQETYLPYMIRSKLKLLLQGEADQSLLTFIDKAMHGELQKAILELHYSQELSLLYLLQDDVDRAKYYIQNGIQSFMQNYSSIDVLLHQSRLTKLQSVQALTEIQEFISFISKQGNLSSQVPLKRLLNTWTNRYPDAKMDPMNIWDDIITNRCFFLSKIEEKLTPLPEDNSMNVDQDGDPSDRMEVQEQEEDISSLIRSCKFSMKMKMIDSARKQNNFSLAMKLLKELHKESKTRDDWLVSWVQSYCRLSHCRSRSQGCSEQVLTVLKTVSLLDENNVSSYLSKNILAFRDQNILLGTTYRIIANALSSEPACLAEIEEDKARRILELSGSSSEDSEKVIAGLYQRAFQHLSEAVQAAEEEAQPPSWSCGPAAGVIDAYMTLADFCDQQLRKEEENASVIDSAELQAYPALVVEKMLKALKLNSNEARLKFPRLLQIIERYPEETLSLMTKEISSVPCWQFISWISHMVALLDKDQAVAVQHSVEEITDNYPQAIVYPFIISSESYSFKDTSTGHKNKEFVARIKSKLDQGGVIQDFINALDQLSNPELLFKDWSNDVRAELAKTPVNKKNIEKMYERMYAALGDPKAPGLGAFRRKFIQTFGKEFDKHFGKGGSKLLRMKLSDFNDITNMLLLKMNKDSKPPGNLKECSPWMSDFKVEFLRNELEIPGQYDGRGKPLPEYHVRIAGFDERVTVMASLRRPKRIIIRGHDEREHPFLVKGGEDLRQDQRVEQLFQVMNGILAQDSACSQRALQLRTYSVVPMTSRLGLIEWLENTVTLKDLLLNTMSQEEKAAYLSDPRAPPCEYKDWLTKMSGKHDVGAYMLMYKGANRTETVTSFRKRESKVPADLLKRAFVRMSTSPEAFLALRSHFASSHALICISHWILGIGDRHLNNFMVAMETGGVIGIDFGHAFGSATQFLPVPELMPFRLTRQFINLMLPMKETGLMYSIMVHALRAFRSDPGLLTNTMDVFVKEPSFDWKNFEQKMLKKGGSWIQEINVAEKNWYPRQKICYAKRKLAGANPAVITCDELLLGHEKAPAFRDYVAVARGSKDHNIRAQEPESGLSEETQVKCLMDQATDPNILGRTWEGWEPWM

B1: FLAG-tagged uORF44p (protein derived from uORF44, an upstream ORF in the mRNA of ARHGEF9) (other, not shown: small tags and cut ends)
chain: MDSLTEQRLTSPNLPAPHLEHYSVLHCTMTLDVQTVVVFAVIVVLLLVNVILMFFLGTR
notes: Expressed from a pcDNA3 FLAG vector in HEK 293 T cells; also called uORF44 protein; mental activity-related protein
binds: [1] | [2] | [3]

From patent US20190049459A1 (TOKYO INSTITUTE OF TECHNOLOGY, published 2019)
